These results are taken from patent US20050227220A1, “Compositions and Methods for Evaluating and Designing Nuclear Receptor Ligands that Modulate Co-Regulator Affinity” (priority 2002, published 2005).

Primed or numbered codes have the meaning given here. No end group written: not given here. *: point of attachment. fluorescein″ = fluorescein label attached to the peptide N-terminus; Biotin = O=C1N[C@H]2[C@H](CS[C@H]2CCCCC(=O)*)N1

B1: VP16-human PPARγ2 (full length) (other)
chain: LSTAPPTDVSLGDELHLDGEDVAMAHADALDDFDLDMLGDGDSPGPGFTPHDSAPYGALDMADFEFEQMFTDALGIDEYGGMGETLGDSPIDPESDSFTDTLSANISQEMTMVDTEMPFWPTNFGISSVDLSVMEDHSHSFDIKPFTTVDFSSISTPHYEDIPFTRTDPVVADYKYDLKLQEYQSAIKVEPASPPYYSEKTQLYNKPHEEPSNSLMAIECRVCGDKASGFHYGVHACEGCKGFFRRTIRLKLIYDRCDLNCRIHKKSRNKCQYCRFQKCLAVGMSHNAIRFGRMPQAEKEKLLAEISSDIDQLNPESADLRALAKHLYDSYIKSFPLTKAKARAILTGKTTDKSPFVIYDMNSLMMGEDKIKFKHITPLQEQSKEVAIRIFQGCQFRSVEAVQEITEYAKSIPGFVNLDLNDQVTLLKYGVHEIIYTMLASLMNKDGVLISEGQGFMTREFLKSLRKPFGDFMEPKFEFAVKFNALELDDSDLAIFIAVIILSGDRPGLLNVKPIEDIQDNLLQALELQLKLNHPESSQLFAKLLQKMTDLRQIVTEHVQLLQVIKKTETDMSLHPLLQEIYKDLY
B2: GAL4-NcoR (2239-2300) (other)
chain: MKLLSSIEQACDICRLKKLKCSKEKPKCAKCLKNNWECRYSPKTKRSPLTRAHLTEVESRLERLEQLFLLIFPREDLDMILKMDSLQDIKALLTGLFVQDNVNKDAVTDRLASVETDMPLTLRQHRISATSSSEESSNKGQRQLTVSPAVTTSGSVSSRGHSFADPASNLGLEDIIRKALMGSFDDKVEDHGVVMSQPMGVVPGTANTS
notes: range 1-147;range 2239-2300; also called GAL4-NCoR 2239 to 2300
B3: TRβ ligand binding domain (receptor, UniProt P10828 202-461, looked up)
chain: EELQKSIGHKPEPTDEEWELIKTVTEAHVATNAQGSHWKQKRKFLPEDIGQAPIVNAPEGGKVDLEAFSHFTKIITPAITRVVDFAKKLPMFCELPCEDQIILLKGCCMEIMSLRAAVRYDPESETLTLNGEMAVTRGQLKNGGLGVVSDAIFDLGMSLSSFNLDDTEVALLQAVLLMSSDRPGLACVERIEKYQDSFLLAFEHYINYRKHHVTHFWPKLLMKVTDLRMIGACHASRFLHMKVECPTELFPPLFLEVFED
notes: also called Thyroid Receptor LBD; TRβ LBD
B5: SRC-1 peptide (amino acids 676-700) (peptide)
peptide: Biotin-CPSSHSSLTERHKILHRLLQEGSPS
modifications: also: fluorescent label in polarization assay, not given here
notes: also called SRC-1 (LCD2) 676-700; SRC peptide

The target in assay [1] is Fluoroscein-NCOR ID-C peptide (NCoR amino acids 2251-2275). Put plainly: fluorescence polarization, 10 nM fluorescein peptide, LBD titrated, no ligand.
In assay [2] the target is Fluoroscein-SMRT ID-C peptide. The assay is described as above.
Assay [3] deals with Fluoroscein-NCOR ID-C peptide (NCoR amino acids 2251-2275). Put plainly: fluorescence polarization. Background: Fluorescence polarisation rises when a labelled molecule tumbles more slowly, as on binding a larger partner.
In assay [4] the target is Fluoroscein-SMRT ID-C peptide. Put plainly: fluorescence polarization.
In assay [5] the target is GAL4-CBP (1-115) (UniProt P04386 1-147; P45481 1-115). Put plainly: cell-based or functional assay.
The target in assay [6] is B2. The assay can be described thus: cell-based or functional assay.
The target of assay [7] is T1, ERβ ligand binding domain (amino acids 257-530) (UniProt Q92731 257-530).
T1 construct: range 257-530; not shown: His-tag
T1 sequence (Q92731 257-530 limits assumed): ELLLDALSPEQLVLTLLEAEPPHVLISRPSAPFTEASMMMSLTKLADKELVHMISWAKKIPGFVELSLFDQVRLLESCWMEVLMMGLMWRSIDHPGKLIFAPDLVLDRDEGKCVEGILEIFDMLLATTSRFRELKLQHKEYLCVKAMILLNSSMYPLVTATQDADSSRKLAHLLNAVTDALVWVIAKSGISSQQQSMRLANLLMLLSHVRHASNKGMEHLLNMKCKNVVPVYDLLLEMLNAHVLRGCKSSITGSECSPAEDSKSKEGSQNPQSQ
The assay can be described thus: fluorescence polarization, 10 nM fluorescein peptide, LBD titrated, no ligand.

The target of assay [8] is B3. The assay is described as above.
Assay [9] deals with T2, RARα ligand binding domain (amino acids 146-432) (UniProt P10276 146-432).
T2 construct: range 146-432; not shown: His-tag
T2 sequence (looked up): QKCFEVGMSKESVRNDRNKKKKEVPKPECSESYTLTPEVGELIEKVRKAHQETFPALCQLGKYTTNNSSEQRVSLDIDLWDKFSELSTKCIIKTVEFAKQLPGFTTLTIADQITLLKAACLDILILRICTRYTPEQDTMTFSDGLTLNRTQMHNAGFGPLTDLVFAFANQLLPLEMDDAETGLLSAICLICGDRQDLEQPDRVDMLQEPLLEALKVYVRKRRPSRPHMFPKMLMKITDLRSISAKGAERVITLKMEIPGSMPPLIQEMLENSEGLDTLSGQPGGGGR
The assay is described as above.

Assay [10] concerns the target T3, human PPARγ ligand binding domain (amino acids 206-477) (human, UniProt P37231-2 206-477).
T3 construct: range 206-477; placed at the N-terminus here; Biotinylated for FRET; also called PPARγ LBD
T3 sequence: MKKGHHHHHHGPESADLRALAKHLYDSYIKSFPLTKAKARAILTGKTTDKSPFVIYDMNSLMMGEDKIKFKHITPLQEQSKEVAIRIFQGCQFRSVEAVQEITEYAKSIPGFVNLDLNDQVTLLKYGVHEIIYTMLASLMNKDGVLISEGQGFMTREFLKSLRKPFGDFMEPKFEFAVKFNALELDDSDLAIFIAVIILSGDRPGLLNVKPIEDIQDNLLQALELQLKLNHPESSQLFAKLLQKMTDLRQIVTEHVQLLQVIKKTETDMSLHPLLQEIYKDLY
Described as above.

Assay [11] has as its target T4, human PPARα ligand binding domain (amino acids 192-468) (human, UniProt Q07869 192-468).
T4 construct: range 192-468; placed at the N-terminus here; Biotinylated for FRET; also called PPARα LBD
T4 sequence: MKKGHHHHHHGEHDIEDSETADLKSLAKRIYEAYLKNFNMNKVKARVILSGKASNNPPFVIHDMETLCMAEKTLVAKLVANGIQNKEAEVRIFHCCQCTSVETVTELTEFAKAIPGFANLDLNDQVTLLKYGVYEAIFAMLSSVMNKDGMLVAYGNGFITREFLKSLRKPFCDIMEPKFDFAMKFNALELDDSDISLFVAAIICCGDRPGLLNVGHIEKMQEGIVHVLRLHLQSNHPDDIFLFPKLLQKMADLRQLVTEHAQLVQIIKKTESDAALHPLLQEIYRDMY
The description is as above.

In assay [12] the target is T5, RXRα ligand binding domain (amino acids 225-462) (UniProt P19793 225-462).
T5 construct: range 225-462; Biotinylated for FRET; also called RXRα LBD; not shown: His-tag
T5 sequence (looked up): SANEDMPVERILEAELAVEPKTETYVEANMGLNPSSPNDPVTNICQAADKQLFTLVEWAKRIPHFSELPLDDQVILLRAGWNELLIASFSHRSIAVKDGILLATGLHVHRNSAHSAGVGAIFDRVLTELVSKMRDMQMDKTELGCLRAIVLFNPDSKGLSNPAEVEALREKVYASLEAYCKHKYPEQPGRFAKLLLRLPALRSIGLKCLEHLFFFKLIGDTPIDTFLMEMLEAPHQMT
The description is as above.

Assay [13] addresses T6, human PPARδ ligand binding domain (amino acids 139-441) (human, UniProt Q03181 139-441, Biotinylated (site not stated) in the FRET assays; unlabelled in fluorescence polarization and SPR.).
T6 construct: placed at the N-terminus here; Biotinylated for FRET; also called PPARδ LBD
T6 sequence: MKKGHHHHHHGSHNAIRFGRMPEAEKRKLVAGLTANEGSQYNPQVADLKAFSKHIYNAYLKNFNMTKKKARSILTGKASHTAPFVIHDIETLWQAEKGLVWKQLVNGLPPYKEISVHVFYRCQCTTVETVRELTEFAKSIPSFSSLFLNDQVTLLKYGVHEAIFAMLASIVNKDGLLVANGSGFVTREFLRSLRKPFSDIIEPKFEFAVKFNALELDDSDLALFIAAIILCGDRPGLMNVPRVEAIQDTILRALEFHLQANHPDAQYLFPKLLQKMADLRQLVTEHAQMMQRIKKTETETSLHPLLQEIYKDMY
The assay is described as above.

In assay [14] the target is B1. Put plainly: mammalian two-hybrid in CV-1 cells.
The target in assay [15] is T7, VP16-human PPARα (full length) (human, UniProt P06492 410-490; Q07869 1-468).
T7 construct: also called VP16 full length PPARα
The assay can be described thus: mammalian two-hybrid in CV-1 cells.

Assay [16] concerns the target T8, Fluoroscein-NCOR ID-C peptide (NCoR amino acids 2251-2275) (N-terminal fluorescein).
T8 construct: also called NCOR peptide; NCoR 2251-2275
T8 peptide: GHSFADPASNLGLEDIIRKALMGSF
The assay can be described thus: fluorescence polarization, no ligand.

Assay [17] addresses T8, Fluoroscein-NCOR ID-C peptide (NCoR …). Put plainly: fluorescence polarization, with agonist ligand T3.
The target of assay [18] is B5. The assay can be described thus: fluorescence polarization, with agonist ligand T3.
The target of assay [19] is T9, biotin-NCOR ID-C peptide (NCoR amino acids 2251-2275) (N-terminal biotin).
T9 construct: also called NCOR-derived co-repressor peptide
T9 peptide: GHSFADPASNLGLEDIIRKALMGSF
The assay can be described thus: time-resolved FRET (ratio 665 nm/620 nm), biotinylated NCOR (2251-2275) peptide on europium streptavidin with APC-labeled LXRα LBD, test compound at 2 µM; normalized to % inhibition or activation.

Assay [20] addresses B3. The assay can be described thus: fluorescence polarization, apparent affinity, no ligand.

Consider “RXRαΔAF2 ligand binding domain (amino acids 225-446) (from UniProt P19793 225-446) (receptor)”, for which the results for the Kd in assay [1] and in assay [2] were 0.39 µM and 0.25 µM, respectively. For the same molecule, the fold greater affinity against RXRα ligand binding domain in assay [3] and in [4] was 100 fold throughout.
B1: in assay [5], the “mammalian two-hybrid reporter, fold association with GW1929 and GW7845” value was roughly 3 fold. Also, the “mammalian two-hybrid reporter, fold dissociation with GW1929 and GW7845” value in assay [6] was roughly 3 fold.
As for {fluorescein″}-TNMGLEAIIFKALMGKYDQWEE [Fluoroscein-SMRT ID-C peptide], the Kd in assay [7] worked out at 30 µM; in assay [8], 0.74 µM; in assay [9], 2.1 µM; in [10], 1.8 µM; in assay [11] it was 6.1 µM; in [12] it was 20 µM. The molecule further showed a Kd in [13] of 7.7 µM.
Take B2: the binding result in [14] and in [15] was “binds” throughout.
For B3, in assay [16], the “fold greater affinity against the coactivator peptide (SRC-1)” value was 10 fold. Also, in assay [17], the “fold decrease in affinity with T3 against no ligand” value is 9 fold. In assay [18], the “fold greater affinity against the co-repressor peptide (NCoR ID-C)” value came out at 48 fold and the “fold increase in affinity with T3 against no ligand” value worked out at 50 fold.

B4: LXR alpha LBD (receptor, not shown: small tags and cut ends)
chain: EEEQAHATSLPPRASSPPQILPQLSPEQLGMIEKLVAAQQQCNRRSFSDRLRVTPWPMAPDPHSREARQQRFAHFTELAIVSVQEIVDFAKQLPGFLQLSREDQIALLKTSAIEVMLLETSRRYNPGSESITFLKDFSYNREDFAKAGLQVEFINPIFEFSRAMNELQLNDAEFALLIAISIFSADRPNVQDQLQVERLQHTYVEALHAYVSIHHPHDRLMFPRMLMKLVSLRTLSSVHSEQVFALRLQDKKLPPLLSEIWDVHE
modifications: Biotinylated and bound to streptavidin-APC in the assay; His-tag not written
notes: also called LXRα
Consider B4, for which the binding result in [19] is listed as “binds”.
As for B5, the Kd in assay [20] was found to be 7.1 µM.
